Test results from PMC10776578, “Epstein-Barr virus-driven B cell lymphoma mediated by a direct LMP1-TRAF6 complex” (Nature Communications, 2024).
Entries after “also recorded” stand apart in the source; their conditions may differ.

Key:
[1] = test system: IκBα in TRAF6^-/- MEFs expressing NGFR-LMP1; test: IκBα degradation (canonical NF-κB) upon NGFR-LMP1 crosslinking; assay type: cell-based, mouse; details: IκBα immunoblot
Excerpt: Wild-type MEFs and derivatives thereof, TRAF6^-/- MEFs[79], and HeLa cells (obtained from the German Collection of Microorganisms and Cell Cultures, GCMC) were kept in Dulbecco’s modified Eagle’s medium (DMEM, Thermo Fischer, #41966-029). The cell lines HEK293 (obtained from GCMC), HA-LCL3[31], LCL721[80], BL41[81], LCL.NGFR-LMP1[35], and the mouse lymphomas LMP1-CL 37 and 40 were kept in Roswell Park Memorial Institute medium (RPMI 1640, Thermo Fisher, #21875-034). If not indicated otherwise, DMEM and RMPI were supplemented with 10% of fetal bovine serum (FBS; Sigma, #F7524), 1 mM L-glutamine (Thermo Fisher, #25030-024) and antibiotics (50 U per mL penicilline and 50 µg per mL streptomycin). LCL.NGFR-LMP1 cells were additionally supplemented with 100 nM sodium selenite and crosslinking primary and secondary antibodies (see below). All cells were kept at 37 °C in the presence of 5% CO2. Retroviral transduction of MEFs with NGFR-LMP1 and TRAF6 was carried out with the vectors pSF91-NGFR-LMP1-IRES-GFP-WPRE and pSF91-Flag-TRAF6-IRES-CFP-WPRE expressing TRAF6 wild-type or the indicated TRAF6 mutants. For NGFR-LMP1 crosslinking, 1 µg per mL of α-NGFR primary antibody (clone HB8737, ATTC) was added for 1 h to the cells. signalling was activated by further addition of 10 µg per mL of α-mouse IgG/IgM secondary antibody (Dianova, #115-005-068) for the given time points.
Immunoblotting was essentially performed as described. Proteins were detected on nitrocellulose membranes (Bio-Rad, #1620115) using the following primary antibodies: α−6*His-tag (clone 4A4 or 2F12, source: antibody facility of the Helmholtz Center Munich, hybridoma supernatants were used at a 1:10 dilution)[75], α-TRAF6 (H-274, Santa Cruz Biotech., #sc-7221, used at 1:1000), α-HA-tag (12CA5, Sigma-Aldrich, #11583816001, used at 0.4 µg per mL), α-IκBα (C-21, Santa Cruz Biotech., #sc-371, used at 1:500) and α-Tubulin (B-5-1-2, Santa Cruz Biotech., #sc-23948, used at 1:500). […] ECL signals were captured on X-ray films (Agfa Healthcare) and quantified by densitometry using the ImageJ software. […]

GST-LMP1 Q381E = test: AlphaScreen PPI, TRAF6 mutants binding to LMP1 Q381E; set-up: species or system Epstein-Barr virus; details: for interaction with LMP1 Q381E (in words): AlphaScreen PPI, four independent experiments; for TRAF6 binding to LMP1 Q-E, AlphaScreen (relative), Supplementary Figure 2 a: mean of wt = 100; for TRAF6 binding to LMP1 Q-E, AlphaScreen (relative), mean: wt = 100, mean of n = 4
Method: AlphaScreen experiments were performed in 96- or 384-well plates (Perkin Elmer, OptiPlate). In both assay formats, His-TRAF and GST-LMP1, GST-CD40, or GST-RANK proteins were incubated together in 40 µL of PBS (protein concentrations were calculated to the final reaction volume of 60 µL) supplemented with 0.5% BSA (Sigma, #A7030) and 0.1% Tween-20 (AppliChem, #A4974), for 1 h at room temperature (RT). If not indicated otherwise, standard protein concentrations were 300 nM for His-TRAF proteins and 100 nM for GST-LMP1 proteins. Ni-NTA-acceptor (Perkin Elmer, #6760619 C) and GST-acceptor (Perkin Elmer, # 6765300) beads were added each to a final concentration of 1–4 µg per mL in a final reaction volume of 60 µL and incubated for 1 h at RT in the dark. AlphaScreen PPI signals were measured in a CLARIOstar reader (BMG Labtech GmbH). […]
Supplementary Figure 2. LMP1 Q381E interaction with TRAF6 and additional controls to
experiments. Data are mean values ± SD of four independent experiments. Statistics: one -way
ANOVA. p-values: ****p ≤ 0.0001. Source data in the Source Data file. […]

B1: R392A (protein, UniProt Q9Y4K3 1-522, looked up, variant R392A)
TNF receptor-associated …: MSLLNCENSCGSSQSESDCCVAMASSCSAVTKDDSVGGTASTGNLSSSFMEEIQGYDVEFDPPLESKYECPICLMALREAVQTPCGHRFCKACIIKSIRDAGHKCPVDNEILLENQLFPDNFAKREILSLMVKCPNEGCLHKMELRHLEDHQAHCEFALMDCPQCQRPFQKFHINIHILKDCPRRQVSCDNCAASMAFEDKEIHDQNCPLANVICEYCNTILIREQMPNHYDLDCPTAPIPCTFSTFGCHEKMQRNHLARHLQENTQSHMRMLAQAVHSLSVIPDSGYISEVRNFQETIHQLEGRLVRQDHQIRELTAKMETQSMYVSELKRTIRTLEDKVAEIEAQQCNGIYIWKIGNFGMHLKCQEEEKPVVIHSPGFYTGKPGYKLCMALHLQLPTAQRCANYISLFVHTMQGEYDSHLPWPFQGTIRLTILDQSEAPVRQNHEEIMDAKPELLAFQRPTIPRNPKGFGYVTFMHLEALRQRTFIKDDTLLVRCEVSTRFDMGSLRREGFQPRSTDAGV
For B1, the “rescue of canonical NF-κB activation by NGFR-LMP1 (in words)” value (shortened to “rescue of canonical NF-κB activation”) [1] was “ineffective in rescuing canonical NF-κB activation”, the “interaction with LMP1 Q381E (in words)” value (GST-LMP1 Q381E) was “fail to interact with LMP1 Q381E; also recorded: unable to override the negative effect of R392A mutation” and the “TRAF6 binding to LMP1 Q-E, AlphaScreen (relative), Supplementary Figure 2 a” value (GST-LMP1 Q381E; replicate 1) was 8.4. For the same molecule, the “TRAF6 binding to LMP1 Q-E, AlphaScreen (relative), Supplementary Figure 2 a” value (GST-LMP1 Q381E; replicate 2) was 4.1, the “TRAF6 binding to LMP1 Q-E, AlphaScreen (relative), Supplementary Figure 2 a” value (GST-LMP1 Q381E; replicate 3) was 6.1 and the “TRAF6 binding to LMP1 Q-E, AlphaScreen (relative), Supplementary Figure 2 a” value (GST-LMP1 Q381E; replicate 4) was 4.8. For the same molecule, the “TRAF6 binding to LMP1 Q-E, AlphaScreen (relative), mean” value (GST-LMP1 Q381E) was 5.85.

B2: F471A (protein, UniProt Q9Y4K3 1-522, looked up, variant F471A)
TNF receptor-associated …: MSLLNCENSCGSSQSESDCCVAMASSCSAVTKDDSVGGTASTGNLSSSFMEEIQGYDVEFDPPLESKYECPICLMALREAVQTPCGHRFCKACIIKSIRDAGHKCPVDNEILLENQLFPDNFAKREILSLMVKCPNEGCLHKMELRHLEDHQAHCEFALMDCPQCQRPFQKFHINIHILKDCPRRQVSCDNCAASMAFEDKEIHDQNCPLANVICEYCNTILIREQMPNHYDLDCPTAPIPCTFSTFGCHEKMQRNHLARHLQENTQSHMRMLAQAVHSLSVIPDSGYISEVRNFQETIHQLEGRLVRQDHQIRELTAKMETQSMYVSELKRTIRTLEDKVAEIEAQQCNGIYIWKIGNFGMHLKCQEEEKPVVIHSPGFYTGKPGYKLCMRLHLQLPTAQRCANYISLFVHTMQGEYDSHLPWPFQGTIRLTILDQSEAPVRQNHEEIMDAKPELLAFQRPTIPRNPKGAGYVTFMHLEALRQRTFIKDDTLLVRCEVSTRFDMGSLRREGFQPRSTDAGV
For B2, the “rescue of canonical NF-κB activation” value [1] was “ineffective in rescuing canonical NF-κB activation”, the “interaction with LMP1 Q381E (in words)” value (GST-LMP1 Q381E) was “fail to interact with LMP1 Q381E; also recorded: unable to override the negative effect” and the “TRAF6 binding to LMP1 Q-E, AlphaScreen (relative), Supplementary Figure 2 a” value (GST-LMP1 Q381E; replicate 1) was 4.8. The “TRAF6 binding to LMP1 Q-E, AlphaScreen (relative), Supplementary Figure 2 a” value (GST-LMP1 Q381E; replicate 2) was 2.2, the “TRAF6 binding to LMP1 Q-E, AlphaScreen (relative), Supplementary Figure 2 a” value (GST-LMP1 Q381E; replicate 3) was 3.4 and the “TRAF6 binding to LMP1 Q-E, AlphaScreen (relative), Supplementary Figure 2 a” value (GST-LMP1 Q381E; replicate 4) was 2.2. For the same molecule, the “TRAF6 binding to LMP1 Q-E, AlphaScreen (relative), mean” value (GST-LMP1 Q381E) was 3.15.

B3: Y473A (protein, UniProt Q9Y4K3 1-522, looked up, variant Y473A)
TNF receptor-associated …: MSLLNCENSCGSSQSESDCCVAMASSCSAVTKDDSVGGTASTGNLSSSFMEEIQGYDVEFDPPLESKYECPICLMALREAVQTPCGHRFCKACIIKSIRDAGHKCPVDNEILLENQLFPDNFAKREILSLMVKCPNEGCLHKMELRHLEDHQAHCEFALMDCPQCQRPFQKFHINIHILKDCPRRQVSCDNCAASMAFEDKEIHDQNCPLANVICEYCNTILIREQMPNHYDLDCPTAPIPCTFSTFGCHEKMQRNHLARHLQENTQSHMRMLAQAVHSLSVIPDSGYISEVRNFQETIHQLEGRLVRQDHQIRELTAKMETQSMYVSELKRTIRTLEDKVAEIEAQQCNGIYIWKIGNFGMHLKCQEEEKPVVIHSPGFYTGKPGYKLCMRLHLQLPTAQRCANYISLFVHTMQGEYDSHLPWPFQGTIRLTILDQSEAPVRQNHEEIMDAKPELLAFQRPTIPRNPKGFGAVTFMHLEALRQRTFIKDDTLLVRCEVSTRFDMGSLRREGFQPRSTDAGV
For B3, the “rescue of canonical NF-κB activation” value [1] was “ineffective in rescuing canonical NF-κB activation”.
